Legend:
Assay type in all cases: biochemical, human
[1] = substrate: Oc1ccc2ccc3c4ccccc4cc4ccc1c2c43; experiment: Kinetics of 3-OH-BaP sulfonation by partially purified cDNA-expressed SULT1E1; conditions: other: apparent, 3-OH-BaP as substrate
Excerpt: (§1) The expression of human SULT1A1*1, SULT1A3, SULT1B1, and SULT1E1 in Escherichia coli has been described previously ([Dajani et al. 1998]; [Wang et al. 1998]). We grew E. coli cells containing the respective sulfotransferase genes as described previously ([Falany et al. 1990], [1994]), and prepared 100,000g supernatant fractions for use in inhibition studies and for partial purification of the SULT enzymes. We purchased expressed SULT1A1*2 cytosolic extract from PanVera (Madison, WI) and used it as supplied.
(§2) The 100,000g supernatant fractions of SULT1A1*1, SULT1A3, SULT1B1, and SULT1E1 were partially purified by chromatographic methods ([Falany et al. 1990], [1994]). After the last step, a 3′-phosphoadenosine 5′-phosphate (PAP)-agarose affinity column, we dialyzed the fractions eluted with PAP with three changes of buffer to remove PAP before the assay of SULT activity with 3-OH-BaP as substrate. We analyzed active fractions by SDS-PAGE ([Laemmli 1970]) to assess the purity of each SULT enzyme. We stained the gels with Coomassie R-250 reagent and determined the percentage of protein present as each respective SULT enzyme by scanning densitometry.
(§3) We determined SULT activity with 3-OH-BaP as substrate by a fluorimetric assay of BaP-3-SO4 product formation, as described previously ([Wang et al. 2004]). […] Duplicate tubes were prepared for each incubation condition. We examined the kinetics of sulfonation in three liver cytosol fractions by systematically varying the concentration of 3-OH-BaP or PAPS. When the variable substrate was 3-OH-BaP, we used 12 concentrations in the range from 0.035 to 2.00 μM, and the concentration of PAPS was kept constant at 10 μM. […]
(§4) We determined the kinetic parameters for 3-OH-BaP sulfonation by partially purified preparations of the cDNA-expressed SULT isozymes under incubation conditions similar to those used for liver cytosol. […]
(§5) We calculated the enzyme kinetic parameters from studies with variable concentrations of 3-OH-BaP using nonlinear regression analysis and GraphPad 4.0 software (GraphPad Software, San Diego, CA). […]

[2] = substrate: Oc1ccc2ccc3c4ccccc4cc4ccc1c2c43; experiment: Kinetics of 3-OH-BaP sulfonation by partially purified cDNA-expressed SULT1A3; conditions: other: apparent, 3-OH-BaP as substrate
Excerpt: as §1, §2, §3, §4, §5

[3] = substrate: Oc1ccc2ccc3c4ccccc4cc4ccc1c2c43; experiment: Kinetics of 3-OH-BaP sulfonation by expressed SULT1A1*2; conditions: other: expressed SULT1A1*2; two-substrate model
Excerpt: as §1
as §3, with “PAPS.” for “PAPS. When the variable substrate was 3-OH-BaP, we used 12 concentrations in the range from 0.035 to 2.00 μM, and the concentration of PAPS was kept constant at 10 μM.”
as §4, §5

[4] = substrate: Oc1ccc2ccc3c4ccccc4cc4ccc1c2c43; experiment: Kinetics of 3-OH-BaP sulfonation by partially purified cDNA-expressed SULT1A1*1; conditions: other: apparent; partially purified SULT1A1*1; 3-OH-BaP as substrate
Excerpt: as §1, §2, §3, §4, §5

B1: SULT1E1 (Homo sapiens) (protein)
chain: MNSELDYYEKFEEVHGILMYKDFVKYWDNVEAFQARPDDLVIATYPKSGTTWVSEIVYMIYKEGDVEKCKEDVIFNRIPFLECRKENLMNGVKQLDEMNSPRIVKTHLPPELLPASFWEKDCKIIYLCRNAKDVAVSFYYFFLMVAGHPNPGSFPEFVEKFMQGQVPYGSWYKHVKSWWEKGKSPRVLFLFYEDLKEDIRKEVIKLIHFLERKPSEELVDRIIHHTSFQEMKNNPSTNYTTLPDEIMNQKLSPFMRKGITGDWKNHFTVALNEKFDKHYEQQMKESTLKFRTEI
notes: made in house; host or cells: Escherichia coli
B1 showed a Km [1] of 0.05 µM, a Vmax [1] of 0.00835 µmol/min/mg and a Vmax/Km [1] of 167000 µL/min/mg.

B2: SULT1A3 (Homo sapiens) (protein)
chain: MELIQDTSRPPLEYVKGVPLIKYFAEALGPLQSFQARPDDLLINTYPKSGTTWVSQILDMIYQGGDLEKCNRAPIYVRVPFLEVNDPGEPSGLETLKDTPPPRLIKSHLPLALLPQTLLDQKVKVVYVARNPKDVAVSYYHFHRMEKAHPEPGTWDSFLEKFMAGEVSYGSWYQHVQEWWELSRTHPVLYLFYEDMKENPKREIQKILEFVGRSLPEETMDFMVQHTSFKEMKKNPMTNYTTVPQELMDHSISPFMRKGMAGDWKTTFTVAQNERFDADYAEKMAGCSLSFRSEL
notes: as for B1
B2 showed a Km [2] of 2.90 µM, a Vmax [2] of 0.333 µmol/min/mg and a Vmax/Km [2] of 115000 µL/min/mg.

B3: SULT1A1*2 (Homo sapiens; R213H) (protein)
chain: MELIQDTSRPPLEYVKGVPLIKYFAEALGPLQSFQARPDDLLISTYPKSGTTWVSQILDMIYQGGDLEKCHRAPIFMRVPFLEFKAPGIPSGMETLKDTPAPRLLKTHLPLALLPQTLLDQKVKVVYVARNAKDVAVSYYHFYHMAKVHPEPGTWDSFLEKFMVGEVSYGSWYQHVQEWWELSRTHPVLYLFYEDMKENPKREIQKILEFVGHSLPEETVDFVVQHTSFKEMKKNPMTNYTTVPQEFMDHSISPFMRKGMAGDWKTTFTVAQNERFDADYAEKMAGCSLSFRSEL
notes: purchased PanVera (Madison, WI); host or cells: Sf-9
With B3 the Km [3] was 0.022 µM.

B4: SULT1A1*1 (Homo sapiens) (protein)
chain: MELIQDTSRPPLEYVKGVPLIKYFAEALGPLQSFQARPDDLLISTYPKSGTTWVSQILDMIYQGGDLEKCHRAPIFMRVPFLEFKAPGIPSGMETLKDTPAPRLLKTHLPLALLPQTLLDQKVKVVYVARNAKDVAVSYYHFYHMAKVHPEPGTWDSFLEKFMVGEVSYGSWYQHVQEWWELSRTHPVLYLFYEDMKENPKREIQKILEFVGRSLPEETVDFVVQHTSFKEMKKNPMTNYTTVPQEFMDHSISPFMRKGMAGDWKTTFTVAQNERFDADYAEKMAGCSLSFRSEL
notes: as for B1
B4 was tested, and the Km [4] was 0.018 µM, the Vmax [4] was 0.00689 µmol/min/mg and the Vmax/Km [4] was 383000 µL/min/mg.
